Source: patent publication US7968306B2 (Wisconsin Alumni Research Foundation, priority 2002, dated 2011)

T1: porcine pancreatic lipase (Sus scrofa, UniProt P00591)
T1 construct: purchased Sigma; host or cells: porcine pancreas
T1 sequence (P00591 1-450): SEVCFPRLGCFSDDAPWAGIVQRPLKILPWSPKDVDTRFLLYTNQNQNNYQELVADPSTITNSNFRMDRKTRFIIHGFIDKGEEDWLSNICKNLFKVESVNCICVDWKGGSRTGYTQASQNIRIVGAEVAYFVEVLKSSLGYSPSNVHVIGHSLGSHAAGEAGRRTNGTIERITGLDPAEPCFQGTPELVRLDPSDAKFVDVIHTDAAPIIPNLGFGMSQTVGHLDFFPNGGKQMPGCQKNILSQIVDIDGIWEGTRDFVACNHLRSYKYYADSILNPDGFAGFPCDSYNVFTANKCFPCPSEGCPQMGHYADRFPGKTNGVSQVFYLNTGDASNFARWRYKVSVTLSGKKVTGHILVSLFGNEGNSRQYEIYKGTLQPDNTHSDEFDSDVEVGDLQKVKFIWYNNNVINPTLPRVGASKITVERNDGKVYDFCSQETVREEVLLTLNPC

B1: annexin VIII: native rabbit lung annexin VIII protein (protein, UniProt O97529 1-327, looked up)
Annexin A8: MAWWKAWVEQEGVTVKGSPHFNPVPDAETLYKAMKGIGTNEQAIIDVLTRRSSAQRQQIAKSFKAQFGSDLTETLKSELSGKFERLIVALMYPPYRYEAKELHDAMKGLGTKEGVIIEILASRTKNQLQEIMKAYEEDYGSSLEEDIQADTSGYLERILVCLLQGSRDDVTGFVDPGLALQDAQDLYAAGEKICGTDEMKFITILCTRSARHLMRVFEEYEKIANKSIEDSIKSETHGSLEEAMLTIVKCTRNLHCYFAERLHYAMKGAGTLDGTLIRNIVSRSEIDLNLIKGHYKKMYGKTLSSMIMEDTSGDYKNALLSLVGSDP
B2: annexin I: native rabbit lung annexin I protein (protein, UniProt P51662 2-346, looked up)
Annexin A1: AMVSEFLKQAWFIDNEEQDYINTVKTYKGGPGSAVSPYPAFNPSSDVAALHQAIMVKGVDEATIIDILTKRNNAQRQQIKAAYLQEKGKPLDEVLKKALTGHLEEVVLALLKTPAQFDADELRAAMKGLGTDEDTLIEILASRNNKEIREINRVYREELKRDLAKDIASDTSGDFQKALLSLAKGDRSEDFGVNEDLADTDARALYEAGERRKGADVNVFTTILTTRSYLHLRRVFQKYSKYSQHDMNKVLDLELKGDIEKCLTAIVQCATCKPAYFAEKLYQAMKGAGTRHKALIRIMVSRSEVDMNDIKAFYQKKYGVSLCQAILDETKGDYEKILVALCGGN
B3: Truncated α1-AT: 48 kDa truncated human α1-AT (16His to 357Pro) isolated from heat-treated CF BALF; PLA2 stimulator (protein, listed as Homo sapiens)
chain: HDQDHPTFDKITPDLAEFAFSLYRQLAHQSDSTNIFFSPVSIAAAFAMLSLGAKGDTHDEILEGLNFNLTEIPEAQIHEGFQELLRTLNQPDSQLQLTTGNGLFLSEFLKLFDKFLEDFKKLYHSEAFTVNFGTDEEAKKQINDYVEKGTQGKIVNLVKELDRDTVFALVNYIFFKGKWERPFEVKDTEEEDFHVDQVTTVKVPMMKRLGMFNIQHCKKLSSWVLLMKYLGNATAIFFLPDEGKLQHLENELTHDIITKFLENEDRRSASLHLPKLSITGTYDLKSVLGQLGITKVFSNGADLSGVTEEAPLKLSKAVHKAVLTIDEKGTEAAGAMFLEAIP

How the values were obtained:
[1] = molecular target: T1, porcine pancreatic lipase; assay: Fluorescent assay of lipase after PLC reaction; type: biochemical; conditions: FIG. 42
[2] = molecular target: PLC (Clostridium perfringens) (Clostridium perfringens, UniProt P0C216)
porcine pancreatic PLA2 = porcine pancreatic PLA2 (Sus scrofa, UniProt P00592); assay: Continuous fluorescent assay of PLA2 (Bis-BODIPY FL C11-PC labeled DOPC-PG liposomes); conditions: for loss of activity after treating the protein in boiling water: boiling water for 5 min; for TFI: 5 ng PLA2, 37° C., 2 min; for TFI / % of control: truncated α1-AT 6 μg, intact α1-AT 20 μg, albumin 20 μg
Chain of porcine pancreatic PLA2 (P00592 23-146): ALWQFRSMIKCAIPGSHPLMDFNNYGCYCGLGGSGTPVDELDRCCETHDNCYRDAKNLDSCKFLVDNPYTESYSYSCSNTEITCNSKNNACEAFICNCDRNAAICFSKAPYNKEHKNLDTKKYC

pancreatic PLA2 = molecular target: T2, pancreatic PLA2 (Sus scrofa, UniProt P00592); assay: Radioactive assay of PLA2 (14C-labeled liposomes); type: biochemical, porcine; conditions: 10 μg rabbit lung annexin, FIG. 25
T2 construct: purchased Sigma Chemical (St. Louis, Mo.); host or cells: porcine pancreas
T2 sequence (P00592 23-146): as above
Procedure: Radioactive assay of PLA2. […] In some tests, 25-100 μg of CF BALF proteins, or 10 μg of rabbit lung annexin I or annexin VIII or both were added to the reaction mixture as specified. The reaction was carried out at room temperature for 30 sec and stopped by adding 2 ml of chloroform:methanol (1:2 vol) followed by addition of 0.4 ml water, and 10 μl of egg PC and lysoPC (20 nmol) which was used as carrier. The test tube was stirred using a Vortex. Lipids were extracted by adding additional 0.6 ml water and 0.6 ml chloroform. After agitating on a vortex, the mixture was centrifuged at 2,000 rpm for 10 min. The chloroform layer was withdrawn and transferred to a new test tube using a Pasteur pipette. Chloroform was evaporated to dryness under a flow of nitrogen. PC and lysoPC were isolated by the methods of silica gel thin-layer chromatography (TLC) using a developing solvent system of chloroform/methanol/water in a ratio of 65/45/5 as described previously (41). Lipids on the TLC plate were visualized by exposure of the TLC plate in an iodine tank. […] Radioactivity in the vial was determined by using a beta scintillation counter. PLA2 activity was expressed as either decrease in PC radioactivity or increase in fatty acid or lysoPC radioactivity as described previously (41).

[3] = with lysoPC (9 nmol), control LysoPC + PLA2
[4] = without lysoPC, control PLA2 (5 ng)

Row | Molecule | effect on lipase activity [1] | effect on PLC activity [2] | loss of activity after treating the protein in boiling water (porcine pancreatic PLA2) | TFI (porcine pancreatic PLA2; with lysoPC (9 nmol)) | % of control (porcine pancreatic PLA2; [3]) | TFI (porcine pancreatic PLA2; without lysoPC) | % of control (porcine pancreatic PLA2; [4]) | inhibition of PLA2 and PLA2-s activities (pancreatic PLA2) | also measured
1 | Intact α1-AT: intact 52 kDa human serum α1-AT; serum PLA2-s (protein-II) purified from human serum | no effect on the lipase activity | effectively inhibited PLC activity | less than 20% | 29.81 | 151.4% | 68.96 | 183.3% |  | effect on PLA2 activity (porcine pancreatic PLA2; wide range of protein concentrations): exhibited only PLA2-stimulating activity
2 | Human serum α1-AT: human serum α1-AT obtained from Sigma Chemical Co. |  | inhibited PLC activity | not affected |  |  |  |  |  | effect of commercial α1-AT on PLA2 activity (porcine pancreatic PLA2; Sigma product, FIG. 44A): stimulated PLA2 activity
3 | B1 |  |  |  |  |  |  |  | significantly inhibited | 
4 | B2 |  |  |  |  |  |  |  | significantly inhibited | inhibition of PLA2 activity and of the effect of truncated α1-AT on PLA2 stimulation (porcine pancreatic PLA2; fluorescent assay, FIG. 46B): markedly inhibited
5 | B3 | no effect on the lipase activity | effectively inhibited PLC activity | heat stable | 31.82 | 161.6% | 57.23 | 152.1% |  | effect of isolated PLA2-s on pancreatic PLA2 activity (porcine pancreatic PLA2; 6 μg PLA2-s, FIG. 29B): exhibited PLA2-stimulating activity; effect on PLA2 activity with 50% PC-50% PG liposomes (porcine pancreatic PLA2; 6 μg truncated α1-AT, 37° C.): markedly stimulated; effect on PLA2 activity with 90% PC-10% PG liposomes (porcine pancreatic PLA2; 6 μg truncated α1-AT, 37° C.): did not significantly enhance the PLA2 activity; effect on PLA2 activity with 100% PC liposomes (porcine pancreatic PLA2; 6 μg truncated α1-AT, 37° C.): did not stimulate PLA2 activity
